Experimental data reported in patent publication US20140120555A1 (PIERRE FABRE MEDICAMENT, published 2014).

Target: T1, Recombinant mouse FcγRI [CD64], Gln25-Pro297 with C-terminal 6-His tag (mouse, UniProt P26151 25-297)
T1 construct: range 25-297; Soluble form bought from R&D Systems; also called m-FcγRI
T1 sequence: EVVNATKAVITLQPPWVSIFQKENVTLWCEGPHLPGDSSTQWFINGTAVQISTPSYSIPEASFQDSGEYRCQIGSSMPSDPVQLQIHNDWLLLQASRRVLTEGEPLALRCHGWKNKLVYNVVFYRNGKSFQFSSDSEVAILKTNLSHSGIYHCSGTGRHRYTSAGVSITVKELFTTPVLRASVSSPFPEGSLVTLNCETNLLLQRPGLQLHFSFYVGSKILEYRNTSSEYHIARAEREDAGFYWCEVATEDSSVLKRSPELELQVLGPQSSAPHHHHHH
Test: SPR (Biacore X), heterogeneous ligand model, m-FcγRI as analyte
Description: 1964 RU of hz515H7VH1D76NVL2 Mab were immobilized using the amine coupling kit chemistry on the second flowcell (FC2) of a CM4 sensorchip. The first flowcell (FC1) activated by NHS and EDC mixture and des-activated by ethanolamine served as the reference surface to check and subtract the non specific interaction between the analyte (Fc gamma receptors) and the sensorchip matrix.
The kinetic experiments were carried out at 25° Celsius at a flow rate of 30 μl/min. The HBS-EP buffer was used either as the running buffer or for the preparation of analyte solutions. The analyte solutions were injected during 90 seconds (association phase) with a 90 seconds delay (dissociation phase). An injection of running buffer as analyte was used as a double reference. All the sensorgrams were corrected by this double reference sensorgram.
According to this model, the hz515H7VH1D76NVL2 Mab Fc domain may be regarded as a mixture of two components.

fold association rate, major versus minor component: 5.7 fold | fold dissociation rate, major versus minor component: 4.8 fold
B1: humanized antibody Hz515H7 VH1 D76N VL2 (antibody, human IgG1, kappa)
heavy: not shown
light: DIVMTQSPSSLAVSLGERATMSCKSSQSLFNSRTRKNYLAWYQQKPGQSPKLLIYWASARDSGVPARFTGSGSETYFTLTISRVQAEDLAVYYCMQSFNLRTFGQGTKVEIKRTVAAPSVFIFPPSDEQLKSGTASVVCLLNNFYPREAKVQWKVDNALQSGNSQESVTEQDSKDSTYSLSSTLTLSKADYEKHKVYACEVTHQGLSSPVTKSFNRGEC
notes: IgG1/kappa; also called hz515H7VL2; hz515H7-1
